Assays:
AMC008-VRC01 complex = target: T1, AMC008-VRC01 complex (HIV-1 clade B, isolate AMC008 …, stabilised); assay: mass photometry; AMC008 with two excess Fabs (b12 and 3BC315, or VRC01 and 3BC315), 1:9 molar ratio in PBS, on ice 30 minutes, diluted in PBS; mass increase divided by 55 kDa per Fab; conditions: both partners purified
T1 construct: source: formed from purified AMC008 Env (Expi293F) and excess VRC01 Fab (1:9 molar ratio in PBS, on ice 30 minutes); copies: 3 + 3 + 3 + 3

AMC008-b12 complex = target: T2, AMC008-b12 complex (HIV-1 clade B, isolate AMC008 …, stabilised); assay: as above; conditions: both partners purified
T2 construct: source: formed from purified AMC008 Env (Expi293F) and excess b12 Fab (1:9 molar ratio in PBS, on ice 30 minutes); copies: 3 + 3 + 3 + 3

B1: antibody 3BC315 Fab (Fab, V domains shown)
VH: QVQLVQSGAEMKDPGASVKVSCRASGYKFTDYYMHWVRQAPGQGLEWVGWVNTNGGFTKYGAKFQGRVTVTRDTSTNTVFLELSRLTFGDTAMYFCARPMRPVSHGIDYSGLFVFQFWGRGTMVTVSS
VL: QSALTQPASVSASPGQSITISCSGTRSDVGGYDFVSWYQQHPGKVPKLIIYEVTKRPSGIPQRFSGSKSGNTASLTISGLQADDEADYYCCSYANYDKLILGGGTKLTVL
notes: source: Expi293F, heavy and light chain co-expressed; IgG purified on Protein A, digested with papain, Fab in the Protein A flow-through
stoichiometry N (AMC008-VRC01 complex): ~1 Fab | stoichiometry N (AMC008-b12 complex): ~3 Fabs
